Values joined by “and” are separate entries in the source; they are usually repeats but may differ in a detail not shown here. Identical values can stand only once. Blank lines part the entries; values can stand above or below the substance they belong to.
Assays:
[1] = biological target: ZE-fused ferritin, C-terminal fusion (HF-ZE) cage (human); assay: TEM + native gel or EMSA
[2] = biological target: ZE-fused ferritin, N-terminal fusion (ZE-HF) cage (human); assay: TEM
[3] = biological target: ZE-mi3 cage (His tag and ZE fused to the N-terminus of the designed protein cage mi3); assay: TEM
[4] = biological target: ZE-mi3 cage (His tag and ZE fused to the N-terminus of the designed protein cage mi3); assay: native gel or EMSA
[5] = biological target: ZE-fused ferritin, N-terminal fusion (ZE-HF) cage (human); assay: native gel or EMSA
[6] = biological target: C-terminal ZR-fused ferritin (HF-ZR) cage, 15 residue linker (human); assay: negative-stain TEM

stoichiometry N (HF-ZR cages per HF-ZE cage) [1]: 1 and 3
stoichiometry N (HF-ZR cages per ZE-HF cage) [2]: 4 and 6
stoichiometry N (HF-ZR cages per mi3 cage) [3]: 12
stoichiometry N (HF-ZR cages per ZE-mi3 cage) [4]: 12
Substance: C-terminal ZR-fused ferritin (HF-ZR) cage, 15 residue linker (designed binder)

stoichiometry N (GFPs per ferritin cage) [5]: 20 to 24
Substance: GFP-ZR (ZR fusion to the GFP C-terminus) (designed binder)

stoichiometry N (GFPs observed per cage) [6]: 1 and 3
Substance: ZE-GFP (ZE-fused GFP) (designed binder)

— publication PMC9891371
